Seven molecules from patent publication US20130289246A1 (VANDERBILT UNIVERSITY, published 2013) can be followed below.

Where two headings read alike, the source gives them in different places. Bounds are passed on as bounds.

Experiment [1] concerns the target T1, recombinant soluble 1968 H3 HA (A/Aichi/2/1968) (Influenza A virus A/Aichi/2/1968 (H3N2), UniProt P03437 17-530). Kind of experiment: ELISA, supernate.
Experiment [2] has as its target T1, recombinant soluble 1968 H3 HA …. Kind of experiment: ELISA, supernate. This is another data set of the same source.
The target in experiment [3] is T2, recombinant soluble trimeric 1918 H1 HA (A/South Carolina/1/1918, wild type) (Influenza A virus A/South …, UniProt Q9WFX3 18-529). Kind of experiment: ELISA, supernate.
The target of experiment [4] is HA of A/Ann Arbor/7/1967 (H2N2) virus (Influenza A virus (H2N2)). Kind of experiment: cell-based or functional assay.
For experiment [5], the target named is HA of A/swine/Missouri/2124514/2006 (H2N3) virus (Influenza A virus (H2N3)). Kind of experiment: cell-based or functional assay.
For experiment [6], the target named is HA of A/Hong Kong/1/1968 (H3N2) virus (Influenza A virus (H3N2), UniProt Q91MA7 17-566). Kind of experiment: cell-based or functional assay.
The target in experiment [7] is T3, HA of A/California/04/2009 (H1N1) virus (Influenza A virus (H1N1)). Kind of experiment: cell-based or functional assay.
For experiment [8], the target named is HA of A/Albany/6/1958 (H2N2) virus (Influenza A virus (H2N2)). Kind of experiment: cell-based or functional assay.
Experiment [9] has as its target HA of A/Japan/305/1957 (H2N2) virus (Influenza A virus (H2N2), UniProt P03451 16-562). Kind of experiment: cell-based or functional assay.
For experiment [10], the target named is HA of A/Vietnam/1203/2004 (H5N1) virus (Influenza A virus (H5N1)). Kind of experiment: cell-based or functional assay.
Experiment [11] concerns the target HA of A/Netherlands/65/1963 (H2N2) virus (Influenza A virus (H2N2)). Kind of experiment: cell-based or functional assay.
The target in experiment [12] is HA of A/Rockville Illinois/5/1957 (H2N2) virus (Influenza A virus (H2N2)). Kind of experiment: cell-based or functional assay.
Experiment [13] deals with HA of A/Ann Arbor/23/1957 (H2N2) virus (Influenza A virus (H2N2)). Kind of experiment: cell-based or functional assay.
The target in experiment [14] is T1, recombinant soluble 1968 H3 HA …. Kind of experiment: ELISA, recombinant mAb.
Experiment [15] has the same target. Kind of experiment: ELISA, supernate. This is another data set of the same source.
The target in experiment [16] is T2, recombinant soluble trimeric 1918 H1 HA …. Kind of experiment: ELISA, supernate. The source holds these as a separate data set.
Experiment [17] deals with HA of A/swine/Iowa/15/1930 (H1N1) virus (Influenza A virus (H1N1)). Kind of experiment: cell-based or functional assay.
The target in experiment [18] is HA of A/USSR/92/1977 (H1N1) virus (Influenza A virus (H1N1)). Kind of experiment: cell-based or functional assay.
For experiment [19], the target named is HA of A/New Caledonia/20/1999 (H1N1) virus (Influenza A virus (H1N1)). Kind of experiment: cell-based or functional assay.
Experiment [20] addresses T3, HA of A/California/04/2009 (H1N1) virus. Kind of experiment: cell-based or functional assay. This is another data set of the same source.
Experiment [21] has as its target HA of A/South Carolina/1/1918 (H1N1), wild type, on VLP (Influenza A virus A/South …, UniProt Q9WFX3 18-566). Kind of experiment: cell-based or functional assay.
For experiment [22], the target named is HA of A/New Jersey/11/1976 (H1N1) virus (Influenza A virus (H1N1)). Kind of experiment: cell-based or functional assay.
In experiment [23] the target is HA of A/Weiss/1943 (H1N1) virus (Influenza A virus (H1N1)). Kind of experiment: cell-based or functional assay.
Experiment [24] concerns the target HA of A/L3/1947 (H1N1) virus (Influenza A virus (H1N1)). Kind of experiment: cell-based or functional assay.
The target in experiment [25] is HA of A/Brisbane/59/2007 (H1N1) virus (Influenza A virus (H1N1)). Kind of experiment: cell-based or functional assay.
In experiment [26] the target is T1, recombinant soluble 1968 H3 HA …. Kind of experiment: ELISA, unconcentrated supernate.
The target is the same in experiment [27]. Kind of experiment: ELISA, supernate. This is another data set of the same source.
Experiment [28] addresses T2, recombinant soluble trimeric 1918 H1 HA …. Kind of experiment: ELISA, supernate. The source holds these as a separate data set.
For experiment [29] the target is unchanged. Kind of experiment: ELISA, supernate. This is another data set of the same source.
The target of experiment [30] is HA of A/Alabama/1/1981 (H3N2) virus (Influenza A virus (H3N2)). Kind of experiment: cell-based or functional assay.

B1: mAb 10E15 (antibody, V domains shown)
VH: EVQLLESGGGVVQPGRSLRLSCAASGFTFRTYGMHWVRQAPGKGLEWVAVISHDGNLKYYGGSVKGRFTISRDNSKNALYLQMNSLRVDDTALYYCARGIGITDAFDIRGQGTMVVVS
VL: QSVLTQPPSVSAAPGQKVTISCSGSSSNIGKNYVSWYQQLPGTAPKLLIYDNDKRPSGIPDRFSGSKSGTSATLGITGLQTGDEADYHCGAWDSSLNGGVFGGGTKVTVLG
B1: the OD in experiment [1] came out at 0.074 OD.

B2: mAb 8F8 (antibody, V domains shown)
VH: EVQLLESGGGVVQPGRSLRLSCAASGFMFSSYVMHWVRQPPGKGLEWVAVIWYDGSKTYFADSMRGRLTVSRDNSKNALYLQMNRLRAEDTAVYYCARQQDSGYSGPEVSYYSHYGMDVWGQGTTVIVS
VL: QSVLTQSPSASGTPGRAITISCSGSSSNIGSNPVNWYQQLPGAAPKLLIYADEHRPSGVPDRFSGPKSGTSASLAISGLQSEDEADYYCAAWDDSLSGPAVVFGGGTKLTVLG
For the molecule B2, the values for the OD in [2] and in experiment [3] were 0.079 OD and 0.07 OD, respectively. In addition, the HAI activity in experiment [4] is more than 20 µg/mL; in [5], 0.63 µg/mL; in [6], more than 20 µg/mL; in [7], more than 20 µg/mL; in experiment [8], 0.32 µg/mL; in experiment [9] it was 0.4 µg/mL. The HAI activity in [10] was more than 20 µg/mL; in [11], 0.1 µg/mL; in experiment [12], 0.4 µg/mL; in experiment [13], 0.1 µg/mL.

B3: mAb 3N6 (recombinant) (antibody, V domains shown)
VH: QVQLQESGPGLVKPSETLSLTCSVSGGSINYYYWSWIRQPPGKGLECIGYISDTGRTYYNPSLRSRVTISVDTSKNQFSLNLTSMTAADTAVYYCARDPTGSRQKNAFDMWGQGTMVTVS
VL: AIQMTQSPSSLSASVGDRVTITCRASQNIRSYLNWYQQKPGKAPNLLIYGTTSLESGVPSRFSGSGSGTDFTLTISSLQPEDFATYYCQQSYHTPQTFGQGTKVEIKR
Take B3: in experiment [14], the OD was 0.069 OD.

B4: mAb 5J8 (antibody, V domains shown)
VH: EVQLVESGPGLVKPSDILSLTCAVSGYSISSNYYWGWIRQPPGKGLEWIGSIYHSGSTYYKPSLESRLGISVDTSKNQFSLKLSFVSAADTAVYYCARHVRSGYPDTAYYFDKWGQGTLVTVS
VL: SYVLTQPPSVSVAPGETARISCGGNNIGTKVLHWYQQTPGQAPVLVVYDDSDRPSGIPERFSGSNSGNTATLTISRVEVGDEADYYCQVWDISTDQAVFGGGTKLTVLG
In the case of B4, the values for the OD in experiment [15] and in experiment [16] were 0.078 OD and 0.262 OD, respectively. Moreover, the HAI activity in experiment [17] was 0.04 µg/mL; in [18], 0.63 µg/mL; in [19] it was more than 20 µg/mL; in experiment [20], 0.09 µg/mL; in [21] it was 0.04 µg/mL; in experiment [22], 0.32 µg/mL. Moreover, the figures for the HAI activity in experiment [23], in experiment [24] and in experiment [25] were 5 µg/mL, 0.08 µg/mL and more than 20 µg/mL, respectively. For the same molecule, the Neut titer was less than 0.025 µg/mL in experiment [17]; 0.2 µg/mL in [18]; more than 20 µg/mL in [19]; 0.0017 µg/mL in experiment [20]; 10 µg/mL in experiment [23]; 0.1 µg/mL in [24]. Besides, in experiment [26], the binding result is reported as “no binding”.

B5: mAb 3E22 (antibody, V domains shown)
VH: EVQLVESGAEVKKPGASVKVSCKASGYTFSRYYIHWVRQAPGQELEWMGWINPDSGDTNYAQKFRGRVTMARDTSISTVYMELNSLRYDDTAVYFCARIIWSSSGMDVWGQGTTVTVS
VL: QSALTQPASVSGSPGQSITISCTGTSSDVGSYNLVSWYQQHPGKAPKLMIYEVSKRPSGVSNRFSGSKSGNTASLTISGLQAEDEADYYCHLYVGSSNWVFGGGTKLAVLG
Regarding B5, the OD in [27] turned out to be 0.379 OD; in [28], 0.741 OD.

B6: mAb 6J24 (antibody, V domains shown)
VH: EVQLVESGGGLVQPGRSLRLSCVGSGFNFDGYAMQWVRQVPGKGLEWVSGISWHSDSTGYADSVRGRFTISRDNAKNSLYLQMDSLRPEDTAFYYCGKSIGHVGGSYRHPIDYWGQGTLVTVS
VL: DIQLTQSPSSLSASVGDRVTITCRASQGITDYLAWYQQKPGTIPKLLIYAASTLQSGVPSRFSGGGYGTDFTLTISSLQPEDVATYYCQKYNSAPLTFGGGTKVEIKR
Regarding B6, the OD in experiment [29] worked out at 0.072 OD.

B7: mAb 2G1 (antibody, V domains shown)
VH: EVQLVESGAEVKKPGSSVKVSCKASGGTFITHVFTWVRQAPGQGLEWVGGFIAIFGTSNYAQKFQGRVTITADESTSTAYMELTSLTSEDTAVYYCARGISGSYGWFDPWGQGTLVTVS
VL: DIQLTQSPSSLSASVGDRVTITCQASQDIRKYLNWYQQKPGKAPNLLIYDASNVKTGVPSRFRGSGSGTDFTFTISSLQPEDIATYYCQQYDNLPITFGQGTRLEIKR
Regarding B7, the HAI activity is more than 20 µg/mL in experiment [4]; 0.63 µg/mL in [5]; 5 µg/mL in experiment [6]; more than 50 µg/mL in experiment [7]; 0.32 µg/mL in experiment [8]; 0.7 µg/mL in experiment [9]. Besides, the HAI activity in [10] was more than 50 µg/mL; in experiment [11] it was 0.05 µg/mL; in experiment [30], more than 50 µg/mL; in [12] it was 0.2 µg/mL; in experiment [13] it was 0.025 µg/mL.
